The labels stand for the following.
B1: Myosin light polypeptide 6 (Homo sapiens), P60660 (parent)
chain: MCDFTEDQTAEFKEAFQLFDRTGDGKILYSQCGDVMRALGQNPTNAEVLKVLGNPKSDEMNVKVLDFEHFLPMLQTVAKNKDQGTYEDYVEGLRVFDKEGNGTVMGAEIRHVLVTLGEKMTEEEVEMLVAGHEDSNGCINYEAFVRHILSG
B2: Heat shock factor protein 2 (Homo sapiens), Q03933 (parent)
chain: MKQSSNVPAFLSKLWTLVEETHTNEFITWSQNGQSFLVLDEQRFAKEILPKYFKHNNMASFVRQLNMYGFRKVVHIDSGIVKQERDGPVEFQHPYFKQGQDDLLENIKRKVSSSKPEENKIRQEDLTKIISSAQKVQIKQETIESRLSELKSENESLWKEVSELRAKHAQQQQVIRKIVQFIVTLVQNNQLVSLKRKRPLLLNTNGAQKKNLFQHIVKEPTDNHHHKVPHSRTEGLKPRERISDDIIIYDVTDDNADEENIPVIPETNEDVISDPSNCSQYPDIVIVEDDNEDEYAPVIQSGEQNEPARESLSSGSDGSSPLMSSAVQLNGSSSLTSEDPVTMMDSILNDNINLLGKVELLDYLDSIDCSLEDFQAMLSGRQFSIDPDLLVDLFTSSVQMNPTDYINNTKSENKGLETTKNNVVQPVSEEGRKSKSKPDKQLIQYTAFPLLAFLDGNPASSVEQASTTASSEVLSSVDKPIEVDELLDSSLDPEPTQSKLVRLEPLTEAEASEATLFYLCELAPAPLDSDMPLLDS
B3: Poliovirus receptor (Homo sapiens), P15151 (parent)
chain: MARAMAAAWPLLLVALLVLSWPPPGTGDVVVQAPTQVPGFLGDSVTLPCYLQVPNMEVTHVSQLTWARHGESGSMAVFHQTQGPSYSESKRLEFVAARLGAELRNASLRMFGLRVEDEGNYTCLFVTFPQGSRSVDIWLRVLAKPQNTAEVQKVQLTGEPVPMARCVSTGGRPPAQITWHSDLGGMPNTSQVPGFLSGTVTVTSLWILVPSSQVDGKNVTCKVEHESFEKPQLLTVNLTVYYPPEVSISGYDNNWYLGQNEATLTCDARSNPEPTGYNWSTTMGPLPPFAVAQGAQLLIRPVDKPINTTLICNVTNALGARQAELTVQVKEGPPSEHSGISRNAIIFLVLGILVFLILLGIGIYFYWSKCSREVLWHCHLCPSSTEHASASANGHVSYSAVSRENSSSQDPQTEGTR
partner: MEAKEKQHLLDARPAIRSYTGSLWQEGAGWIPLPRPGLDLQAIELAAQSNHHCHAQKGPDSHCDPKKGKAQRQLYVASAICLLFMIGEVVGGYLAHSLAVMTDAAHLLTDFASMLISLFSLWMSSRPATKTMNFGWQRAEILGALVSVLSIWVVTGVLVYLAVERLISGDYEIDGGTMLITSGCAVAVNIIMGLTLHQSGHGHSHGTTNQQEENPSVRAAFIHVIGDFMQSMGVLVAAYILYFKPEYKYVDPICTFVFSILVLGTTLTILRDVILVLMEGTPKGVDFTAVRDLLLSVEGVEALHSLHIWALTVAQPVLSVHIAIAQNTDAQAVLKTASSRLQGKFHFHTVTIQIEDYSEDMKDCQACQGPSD
B4: Homeobox protein PKNOX1 (Homo sapiens), P55347 (parent)
chain: MMATQTLSIDSYQDGQQMQVVTELKTEQDPNCSEPDAEGVSPPPVESQTPMDVDKQAIYRHPLFPLLALLFEKCEQSTQGSEGTTSASFDVDIENFVRKQEKEGKPFFCEDPETDNLMVKAIQVLRIHLLELEKVNELCKDFCSRYIACLKTKMNSETLLSGEPGSPYSPVQSQQIQSAITGTISPQGIVVPASALQQGNVAMATVAGGTVYQPVTVVTPQGQVVTQTLSPGTIRIQNSQLQLQLNQDLSILHQDDGSSKNKRGVLPKHATNVMRSWLFQHIGHPYPTEDEKKQIAAQTNLTLLQVNNWFINARRRILQPMLDSSCSETPKTKKKTAQNRPVQRFWPDSIASGVAQPPPSELTMSEGAVVTITTPVNMNVDSLQSLSSDGATLAVQQVMMAGQSEDESVDSTEEDAGALAPAHISGLVLENSDSLQ
partner: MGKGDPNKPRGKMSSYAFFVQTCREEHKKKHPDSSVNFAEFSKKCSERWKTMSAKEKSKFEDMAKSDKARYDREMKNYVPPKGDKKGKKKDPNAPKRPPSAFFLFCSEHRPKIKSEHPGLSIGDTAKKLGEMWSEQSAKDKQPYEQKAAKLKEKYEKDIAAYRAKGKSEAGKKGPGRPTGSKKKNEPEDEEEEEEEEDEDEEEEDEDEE
B5: Isoform 1 of Destrin (Homo sapiens), P60981-1 (parent)
chain: MASGVQVADEVCRIFYDMKVRKCSTPEEIKKRKKAVIFCLSADKKCIIVEEGKEILVGDVGVTITDPFKHFVGMLPEKDCRYALYDASFETKESRKEELMFFLWAPELAPLKSKMIYASSKDAIKKKFQGIKHECQANGPEDLNRACIAEKLGGSLIVAFEGCPV

The variants in the first experiment derive from B1. The note with it: with ats12_human ADAMTS12, P58397.
Sequence of ats12_human ADAMTS12, P58397 (P58397 whole entry): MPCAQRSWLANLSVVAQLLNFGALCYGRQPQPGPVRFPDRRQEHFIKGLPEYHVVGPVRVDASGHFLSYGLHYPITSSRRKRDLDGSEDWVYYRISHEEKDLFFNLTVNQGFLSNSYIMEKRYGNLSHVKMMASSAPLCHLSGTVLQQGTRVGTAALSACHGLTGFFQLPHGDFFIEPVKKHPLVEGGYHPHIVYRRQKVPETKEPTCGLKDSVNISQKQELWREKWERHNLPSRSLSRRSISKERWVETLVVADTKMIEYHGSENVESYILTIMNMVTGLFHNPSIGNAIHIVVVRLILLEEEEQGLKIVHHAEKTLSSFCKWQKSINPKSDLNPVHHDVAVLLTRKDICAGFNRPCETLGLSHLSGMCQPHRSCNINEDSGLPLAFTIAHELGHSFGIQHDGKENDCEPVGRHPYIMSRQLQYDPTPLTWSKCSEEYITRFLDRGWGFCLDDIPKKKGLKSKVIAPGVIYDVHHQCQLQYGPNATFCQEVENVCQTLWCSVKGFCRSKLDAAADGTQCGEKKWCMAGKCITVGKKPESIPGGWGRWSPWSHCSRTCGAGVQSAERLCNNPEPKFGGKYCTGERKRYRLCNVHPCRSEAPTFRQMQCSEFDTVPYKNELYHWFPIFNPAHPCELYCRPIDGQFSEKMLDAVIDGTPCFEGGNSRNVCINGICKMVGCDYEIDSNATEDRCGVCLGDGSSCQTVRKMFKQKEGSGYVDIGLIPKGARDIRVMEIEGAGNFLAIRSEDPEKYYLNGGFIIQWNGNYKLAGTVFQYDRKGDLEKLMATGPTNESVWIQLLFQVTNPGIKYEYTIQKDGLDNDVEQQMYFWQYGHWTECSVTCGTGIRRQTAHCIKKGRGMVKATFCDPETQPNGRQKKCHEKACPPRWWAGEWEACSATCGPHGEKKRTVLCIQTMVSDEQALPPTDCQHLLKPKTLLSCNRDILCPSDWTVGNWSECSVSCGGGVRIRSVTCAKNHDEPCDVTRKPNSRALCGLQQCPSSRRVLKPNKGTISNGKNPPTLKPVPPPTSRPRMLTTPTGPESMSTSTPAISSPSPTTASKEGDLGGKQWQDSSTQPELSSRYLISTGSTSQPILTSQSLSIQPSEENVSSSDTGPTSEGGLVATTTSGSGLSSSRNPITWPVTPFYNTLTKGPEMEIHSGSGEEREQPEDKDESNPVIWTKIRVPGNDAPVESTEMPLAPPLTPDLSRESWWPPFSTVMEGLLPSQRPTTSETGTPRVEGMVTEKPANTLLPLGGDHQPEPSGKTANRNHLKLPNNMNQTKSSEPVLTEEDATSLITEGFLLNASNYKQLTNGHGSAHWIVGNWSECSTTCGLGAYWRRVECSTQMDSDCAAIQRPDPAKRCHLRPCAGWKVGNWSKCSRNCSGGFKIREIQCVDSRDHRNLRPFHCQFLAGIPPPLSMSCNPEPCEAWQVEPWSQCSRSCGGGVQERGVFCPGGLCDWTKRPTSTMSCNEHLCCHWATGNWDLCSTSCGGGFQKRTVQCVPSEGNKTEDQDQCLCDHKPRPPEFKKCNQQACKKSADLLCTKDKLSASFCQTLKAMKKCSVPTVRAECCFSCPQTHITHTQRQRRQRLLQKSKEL
Turning to C138S, the “effect of a mutation on the interaction” value was “disrupting interaction strength”.

In the next experiment the parent is B1. Conditions: with cpsf5_human NUDT21, O43809.
Sequence of cpsf5_human NUDT21, O43809 (O43809 whole entry): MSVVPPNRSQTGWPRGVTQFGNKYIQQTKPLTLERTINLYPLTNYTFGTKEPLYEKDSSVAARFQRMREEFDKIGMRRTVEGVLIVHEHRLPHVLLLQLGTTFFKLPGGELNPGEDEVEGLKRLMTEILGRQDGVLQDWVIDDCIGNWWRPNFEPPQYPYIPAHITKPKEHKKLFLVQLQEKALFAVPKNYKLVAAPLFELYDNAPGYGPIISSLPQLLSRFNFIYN
Take C138S: the “effect of a mutation on the interaction” value is listed as “disrupting interaction strength”.

The variants in a further experiment derive from B2. The note with it: with mtus2_human MTUS2, Q5JR59.
Sequence of mtus2_human MTUS2, Q5JR59 (Q5JR59 whole entry): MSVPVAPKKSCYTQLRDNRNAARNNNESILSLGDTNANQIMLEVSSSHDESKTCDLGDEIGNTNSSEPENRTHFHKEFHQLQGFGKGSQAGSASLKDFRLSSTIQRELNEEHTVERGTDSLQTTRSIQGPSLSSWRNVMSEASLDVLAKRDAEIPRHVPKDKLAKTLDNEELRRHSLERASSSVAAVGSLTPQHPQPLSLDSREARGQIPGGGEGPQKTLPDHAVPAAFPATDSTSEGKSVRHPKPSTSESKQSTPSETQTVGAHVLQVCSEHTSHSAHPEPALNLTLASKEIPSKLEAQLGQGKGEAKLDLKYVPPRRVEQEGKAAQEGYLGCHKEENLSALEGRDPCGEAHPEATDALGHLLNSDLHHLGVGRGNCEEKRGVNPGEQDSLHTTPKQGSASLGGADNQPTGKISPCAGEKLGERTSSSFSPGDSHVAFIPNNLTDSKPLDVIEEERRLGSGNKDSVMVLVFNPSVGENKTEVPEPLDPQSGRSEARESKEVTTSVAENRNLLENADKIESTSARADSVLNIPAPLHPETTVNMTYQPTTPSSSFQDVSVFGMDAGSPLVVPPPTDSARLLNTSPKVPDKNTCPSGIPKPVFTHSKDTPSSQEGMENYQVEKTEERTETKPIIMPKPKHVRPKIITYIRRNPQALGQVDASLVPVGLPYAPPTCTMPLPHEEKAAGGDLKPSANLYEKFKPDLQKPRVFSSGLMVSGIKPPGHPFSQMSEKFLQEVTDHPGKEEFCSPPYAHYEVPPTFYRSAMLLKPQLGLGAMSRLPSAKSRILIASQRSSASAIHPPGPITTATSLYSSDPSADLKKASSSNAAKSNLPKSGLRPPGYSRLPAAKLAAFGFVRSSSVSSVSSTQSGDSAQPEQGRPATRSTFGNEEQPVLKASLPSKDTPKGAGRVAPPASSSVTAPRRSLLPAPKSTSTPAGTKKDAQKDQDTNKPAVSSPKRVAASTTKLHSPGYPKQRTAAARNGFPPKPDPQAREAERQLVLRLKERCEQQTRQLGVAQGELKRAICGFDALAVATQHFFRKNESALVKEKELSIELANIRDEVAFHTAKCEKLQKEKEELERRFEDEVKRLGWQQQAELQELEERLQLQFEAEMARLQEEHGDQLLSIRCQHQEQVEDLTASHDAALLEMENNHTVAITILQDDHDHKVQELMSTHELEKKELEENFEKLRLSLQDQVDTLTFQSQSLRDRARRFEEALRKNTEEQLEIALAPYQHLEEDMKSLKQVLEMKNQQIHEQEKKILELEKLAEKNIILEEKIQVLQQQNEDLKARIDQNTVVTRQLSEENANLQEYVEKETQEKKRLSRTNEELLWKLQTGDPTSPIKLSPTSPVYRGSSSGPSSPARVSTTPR
With V287I, the “effect of a mutation on the interaction” value is on record as “with no effect”.

The variants in another experiment derive from B2. Conditions: with nup62_human NUP62, P37198.
Sequence of nup62_human NUP62, P37198 (P37198 whole entry): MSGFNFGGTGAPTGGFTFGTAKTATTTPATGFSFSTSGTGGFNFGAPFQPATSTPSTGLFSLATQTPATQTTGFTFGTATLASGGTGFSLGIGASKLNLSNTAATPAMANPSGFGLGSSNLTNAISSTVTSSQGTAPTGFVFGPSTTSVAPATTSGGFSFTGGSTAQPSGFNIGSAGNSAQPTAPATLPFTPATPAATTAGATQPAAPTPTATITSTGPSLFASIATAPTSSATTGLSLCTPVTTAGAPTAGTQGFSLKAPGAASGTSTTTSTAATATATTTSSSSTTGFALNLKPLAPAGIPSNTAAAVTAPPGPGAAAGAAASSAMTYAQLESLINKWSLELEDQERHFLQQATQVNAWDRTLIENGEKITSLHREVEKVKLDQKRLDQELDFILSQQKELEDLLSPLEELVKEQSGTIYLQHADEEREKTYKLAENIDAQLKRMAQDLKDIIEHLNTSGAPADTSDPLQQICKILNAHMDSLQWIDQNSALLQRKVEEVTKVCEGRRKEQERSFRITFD
Consider V287I, for which the “effect of a mutation on the interaction” value was “with no effect”.

The variants in a further experiment derive from B2. The note with it: with wdr5_human WDR5, P61964.
Take V287I: the “effect of a mutation on the interaction” value was “with no effect”.

Variants of B2 are the subject of another experiment. Conditions: with tpm3_human TPM3, P06753.
Sequence of tpm3_human TPM3, P06753 (P06753 whole entry): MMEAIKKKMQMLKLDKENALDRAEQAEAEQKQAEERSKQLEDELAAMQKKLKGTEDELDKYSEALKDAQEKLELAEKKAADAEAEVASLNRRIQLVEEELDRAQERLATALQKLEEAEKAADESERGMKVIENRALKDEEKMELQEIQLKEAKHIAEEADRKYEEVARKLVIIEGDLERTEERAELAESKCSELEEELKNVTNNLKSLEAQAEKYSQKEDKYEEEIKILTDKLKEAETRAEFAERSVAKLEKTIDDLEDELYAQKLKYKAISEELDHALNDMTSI
As to V287I, the “effect of a mutation on the interaction” value is given as “with no effect”.

Variants of B3 are the subject of the next experiment. Conditions: with znt2_human SLC30A2, Q9BRI3.
As to A67T, the “effect of a mutation on the interaction” value is “with no effect”.

In another experiment the parent is B4. The note with it: with hmgb2_human HMGB2, P26583.
With V265I, the “effect of a mutation on the interaction” value is recorded as “with no effect”.
Same read-out and setting: then E103D, with “with no effect”.

The next experiment covers variants of B4. Conditions: with hmgb2_human HMGB2, P26583. This is another data set of the same source.
Turning to V265I, the “effect of a mutation on the interaction” value is “with no effect”.

In a further experiment the parent is B5. Conditions: with cof2_human CFL2, Q9Y281.
Consider G139E, for which the “effect of a mutation on the interaction” value is on record as “with no effect”.

The variants in a further experiment derive from B5. The note with it: with actb_human ACTB.
Turning to G139E, the “effect of a mutation on the interaction” value is recorded as “with no effect”.

The variants in the next experiment derive from B5. The note with it: with actg_human ACTG1, P63261.
As for G139E, the “effect of a mutation on the interaction” value is reported as “with no effect”.

The record behind these values is IntAct's records for PubMed 31515488.
